The results in this text go back to patent US20240035010, “COMPOSITIONS COMPRISING A VARIANT POLYPEPTIDE AND USES THEREOF” (Arbor Biotechnologies, Inc., published 2024).

Residue numbers refer to the chain shown, from its start.

The target of series [1] is T1, variant nuclease L38G combination (P14R, D32R, I61R, E311R, L38G).
T1 chain: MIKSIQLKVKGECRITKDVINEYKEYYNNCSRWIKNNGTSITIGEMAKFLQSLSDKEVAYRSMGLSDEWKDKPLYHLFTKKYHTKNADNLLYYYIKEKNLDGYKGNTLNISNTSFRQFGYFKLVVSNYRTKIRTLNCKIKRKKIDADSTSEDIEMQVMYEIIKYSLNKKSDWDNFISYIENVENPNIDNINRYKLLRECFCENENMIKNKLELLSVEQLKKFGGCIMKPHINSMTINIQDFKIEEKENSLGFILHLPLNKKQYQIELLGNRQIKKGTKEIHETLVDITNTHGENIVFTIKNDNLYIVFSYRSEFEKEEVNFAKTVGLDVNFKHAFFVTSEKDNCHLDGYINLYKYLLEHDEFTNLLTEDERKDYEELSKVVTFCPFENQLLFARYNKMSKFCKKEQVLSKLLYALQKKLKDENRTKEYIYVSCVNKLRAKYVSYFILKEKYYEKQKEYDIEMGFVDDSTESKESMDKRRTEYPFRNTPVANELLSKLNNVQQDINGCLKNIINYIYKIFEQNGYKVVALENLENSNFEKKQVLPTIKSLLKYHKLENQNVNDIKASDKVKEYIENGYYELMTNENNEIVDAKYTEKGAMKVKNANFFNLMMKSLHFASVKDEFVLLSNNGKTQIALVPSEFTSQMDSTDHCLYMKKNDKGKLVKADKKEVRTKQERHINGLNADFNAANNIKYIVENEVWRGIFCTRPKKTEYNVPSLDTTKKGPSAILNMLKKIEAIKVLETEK
Kind of series: cell_activity; PAM 5'-TTTG-3'. The note with it: tags: pcDNA3.1 expression. The method in brief: (§1)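 HEK293T cells were lipofected with nuclease plasmid (pcDNA3.1 backbone) plus RNA guide plasmid, with guide omitted in negative controls. After ~72 h cells were lysed in QuickExtract and % indels were derived from NGS reads, averaged over two bioreplicates and two technical replicates.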

Series [2] deals with T2, variant nuclease T338G combination (P14R, D32R, I61R, E311R, T338G).
T2 chain: T1 chain with G38L, T338G
Kind of series: cell_activity; PAM 5'-TTTG-3'. The note with it: tags: pcDNA3.1 expression. The method in brief: as §1

B1: AAVS1 crRNA ; AAVS1 target (ssRNA ; dsDNA)
RNA: CUUGUUGUAUAUGUCCUUUUAUAGGUAUUAAACAACUGAGAAUGGUGCGUCCUAGG
DNA 1: TGAGAATGGTGCGTCCTAGG
DNA 2: CCTAGGACGCACCATTCTCA
On to B1, for which the indel activity in series [1] was 1.28 fold of WT; in series [2], 5.93 fold of WT.
